Values quoted from earlier work, collected in paper PMC7599640.
pKd: −log10 of the molar value.

Target: alpha-bungarotoxin (Bungarus multicinctus) (UniProt P60615)
UniProt P60615, sequence (P60615 22-95): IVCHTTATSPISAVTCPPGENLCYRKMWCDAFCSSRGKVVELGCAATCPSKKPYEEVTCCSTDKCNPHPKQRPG

## Nicotinic acetylcholine receptor (from UniProt P02710)
  pKd: 9.40
